Results taken from US20180258163A1 (Chugai, published 2018).
Like-named read-outs stand apart in the source and are kept apart here.

T1: soluble human FcγRIIb (human, UniProt P31994 43-217, limits assumed)
T1 construct: soluble His-tagged form; also called hFcγRIIb
T1 sequence (looked up): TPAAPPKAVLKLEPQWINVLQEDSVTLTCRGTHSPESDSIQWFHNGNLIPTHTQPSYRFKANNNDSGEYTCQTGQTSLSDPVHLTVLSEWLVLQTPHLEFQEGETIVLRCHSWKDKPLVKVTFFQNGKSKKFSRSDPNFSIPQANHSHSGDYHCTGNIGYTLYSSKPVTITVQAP


How the values were obtained:
soluble human FcγRIIb [1] = target: T1, soluble human FcγRIIb; experiment: SPR, Ab-IgE complex over captured hFcγRIIb, pH 7.4, 25C
Protocol: (§1) Regarding the produced Fc region variant-containing antibodies, binding assays between soluble human FcγRIIb and antigen-antibody complexes were performed using BIACORE T200 (GE Healthcare). Soluble human FcγRIIb (NCBI accession NM_004001.3) was produced in the form of a His-tagged molecule by a method known in the art. An appropriate amount of an anti-His antibody was fixed onto Sensor chip CM5 (GE Healthcare) by the amine coupling method using a His capture kit (GE Healthcare) to capture human FcγRIIb. Next, an antibody-antigen complex and a running buffer (as a reference solution) were injected, and interaction was allowed to take place with the human FcγRIIb captured onto the sensor chip. 20 mM N-(2-Acetamido)-2-aminoethanesulfonic acid, 150 mM NaCl, 1.2 mM CaCl₂, and 0.05% (w/v) Tween 20 at pH 7.4 was used as the running buffer, and the respective buffer was also used to dilute the soluble human FcγRIIb. To regenerate the sensor chip, 10 mM glycine-HCl at pH 1.5 was used. All measurements were carried out at 25° C. Analyses were performed based on binding (RU) calculated from sensorgrams obtained by the measurements, and relative values when the binding amount of Ab1H/Ab1L (original Ab1) was defined as 1.00 are shown. To calculate the parameters, the BIACORE T100 Evaluation Software (GE Healthcare) was used.

soluble human FcγRIIb [2] = target: T1, soluble human FcγRIIb; experiment: as above; remark: listed apart in the source
Protocol: as §1

Row | Binder | BIACORE fold (relative binding, original Ab1=1.00) (soluble human FcγRIIb [1]) [fold] | BIACORE fold (relative binding, original Ab1=1.00) (soluble human FcγRIIb [2]) [fold]
1 | Ab1H005m/Ab1L (antibody, human IgG1, kappa, name in Kabat numbering, copies: 2 + 2) heavy: not shown light: DIQMTQSPSSVSASVGDRVTITCQASESIYSGLAWYQQKPGQPPKLLIYDHSTLASGVPSRFSGSGSGTEYALTISSLQPEDFATYYCQHADYAHHSDNVFGGGTKVEIKRTVAAPSVFIFPPSDEQLKSGTASVVCLLNNFYPREAKVQWKVDNALQSGNSQESVTEQDSKDSTYSLSSTLTLSKADYEKHKVYACEVTHQGLSSPVTKSFNRGEC | 0.92 | 
2 | Ab1H010/Ab1L (antibody, human IgG1, kappa, name in Kabat numbering, copies: 2 + 2) heavy: not shown light: DIQMTQSPSSVSASVGDRVTITCQASESIYSGLAWYQQKPGQPPKLLIYDHSTLASGVPSRFSGSGSGTEYALTISSLQPEDFATYYCQHADYAHHSDNVFGGGTKVEIKRTVAAPSVFIFPPSDEQLKSGTASVVCLLNNFYPREAKVQWKVDNALQSGNSQESVTEQDSKDSTYSLSSTLTLSKADYEKHKVYACEVTHQGLSSPVTKSFNRGEC | 1.05 | 
3 | Ab1H012/Ab1L (antibody, human IgG1, kappa, name in Kabat numbering, copies: 2 + 2) heavy: not shown light: DIQMTQSPSSVSASVGDRVTITCQASESIYSGLAWYQQKPGQPPKLLIYDHSTLASGVPSRFSGSGSGTEYALTISSLQPEDFATYYCQHADYAHHSDNVFGGGTKVEIKRTVAAPSVFIFPPSDEQLKSGTASVVCLLNNFYPREAKVQWKVDNALQSGNSQESVTEQDSKDSTYSLSSTLTLSKADYEKHKVYACEVTHQGLSSPVTKSFNRGEC | 0.96 | 
4 | Ab1H013/Ab1L (antibody, human IgG1, kappa, name in Kabat numbering, copies: 2 + 2) heavy: not shown light: DIQMTQSPSSVSASVGDRVTITCQASESIYSGLAWYQQKPGQPPKLLIYDHSTLASGVPSRFSGSGSGTEYALTISSLQPEDFATYYCQHADYAHHSDNVFGGGTKVEIKRTVAAPSVFIFPPSDEQLKSGTASVVCLLNNFYPREAKVQWKVDNALQSGNSQESVTEQDSKDSTYSLSSTLTLSKADYEKHKVYACEVTHQGLSSPVTKSFNRGEC | 1.02 | 
5 | Ab1H014/Ab1L (antibody, human IgG1, kappa, name in Kabat numbering, copies: 2 + 2) heavy: not shown light: DIQMTQSPSSVSASVGDRVTITCQASESIYSGLAWYQQKPGQPPKLLIYDHSTLASGVPSRFSGSGSGTEYALTISSLQPEDFATYYCQHADYAHHSDNVFGGGTKVEIKRTVAAPSVFIFPPSDEQLKSGTASVVCLLNNFYPREAKVQWKVDNALQSGNSQESVTEQDSKDSTYSLSSTLTLSKADYEKHKVYACEVTHQGLSSPVTKSFNRGEC | 0.91 | 
6 | Ab1H016/Ab1L (antibody, human IgG1, kappa, name in Kabat numbering, copies: 2 + 2) heavy: not shown light: DIQMTQSPSSVSASVGDRVTITCQASESIYSGLAWYQQKPGQPPKLLIYDHSTLASGVPSRFSGSGSGTEYALTISSLQPEDFATYYCQHADYAHHSDNVFGGGTKVEIKRTVAAPSVFIFPPSDEQLKSGTASVVCLLNNFYPREAKVQWKVDNALQSGNSQESVTEQDSKDSTYSLSSTLTLSKADYEKHKVYACEVTHQGLSSPVTKSFNRGEC | 1.04 | 
7 | Ab1H018/Ab1L (antibody, human IgG1, kappa, name in Kabat numbering, copies: 2 + 2) heavy: not shown light: DIQMTQSPSSVSASVGDRVTITCQASESIYSGLAWYQQKPGQPPKLLIYDHSTLASGVPSRFSGSGSGTEYALTISSLQPEDFATYYCQHADYAHHSDNVFGGGTKVEIKRTVAAPSVFIFPPSDEQLKSGTASVVCLLNNFYPREAKVQWKVDNALQSGNSQESVTEQDSKDSTYSLSSTLTLSKADYEKHKVYACEVTHQGLSSPVTKSFNRGEC | -0.01 | 
8 | Ab1H027/Ab1L (antibody, human IgG1, kappa, name in Kabat numbering, copies: 2 + 2) heavy: not shown light: DIQMTQSPSSVSASVGDRVTITCQASESIYSGLAWYQQKPGQPPKLLIYDHSTLASGVPSRFSGSGSGTEYALTISSLQPEDFATYYCQHADYAHHSDNVFGGGTKVEIKRTVAAPSVFIFPPSDEQLKSGTASVVCLLNNFYPREAKVQWKVDNALQSGNSQESVTEQDSKDSTYSLSSTLTLSKADYEKHKVYACEVTHQGLSSPVTKSFNRGEC | 1.21 | 
9 | Ab1H028/Ab1L (antibody, human IgG1, kappa, name in Kabat numbering, copies: 2 + 2) heavy: not shown light: DIQMTQSPSSVSASVGDRVTITCQASESIYSGLAWYQQKPGQPPKLLIYDHSTLASGVPSRFSGSGSGTEYALTISSLQPEDFATYYCQHADYAHHSDNVFGGGTKVEIKRTVAAPSVFIFPPSDEQLKSGTASVVCLLNNFYPREAKVQWKVDNALQSGNSQESVTEQDSKDSTYSLSSTLTLSKADYEKHKVYACEVTHQGLSSPVTKSFNRGEC | 1.37 | 
10 | Ab1H029/Ab1L (antibody, human IgG1, kappa, name in Kabat numbering, copies: 2 + 2) heavy: not shown light: DIQMTQSPSSVSASVGDRVTITCQASESIYSGLAWYQQKPGQPPKLLIYDHSTLASGVPSRFSGSGSGTEYALTISSLQPEDFATYYCQHADYAHHSDNVFGGGTKVEIKRTVAAPSVFIFPPSDEQLKSGTASVVCLLNNFYPREAKVQWKVDNALQSGNSQESVTEQDSKDSTYSLSSTLTLSKADYEKHKVYACEVTHQGLSSPVTKSFNRGEC | 1.33 | 
11 | Ab1H030/Ab1L (antibody, human IgG1, kappa, name in Kabat numbering, copies: 2 + 2) heavy: not shown light: DIQMTQSPSSVSASVGDRVTITCQASESIYSGLAWYQQKPGQPPKLLIYDHSTLASGVPSRFSGSGSGTEYALTISSLQPEDFATYYCQHADYAHHSDNVFGGGTKVEIKRTVAAPSVFIFPPSDEQLKSGTASVVCLLNNFYPREAKVQWKVDNALQSGNSQESVTEQDSKDSTYSLSSTLTLSKADYEKHKVYACEVTHQGLSSPVTKSFNRGEC | 1.27 | 
12 | Ab1H031m/Ab1L (antibody, human IgG1, kappa, name in Kabat numbering, copies: 2 + 2) heavy: not shown light: DIQMTQSPSSVSASVGDRVTITCQASESIYSGLAWYQQKPGQPPKLLIYDHSTLASGVPSRFSGSGSGTEYALTISSLQPEDFATYYCQHADYAHHSDNVFGGGTKVEIKRTVAAPSVFIFPPSDEQLKSGTASVVCLLNNFYPREAKVQWKVDNALQSGNSQESVTEQDSKDSTYSLSSTLTLSKADYEKHKVYACEVTHQGLSSPVTKSFNRGEC | 0.06 | 
13 | Ab1H/Ab1L037 (antibody, human IgG1, kappa, copies: 2 + 2) heavy: not shown light: DIQMTQSPSSVSASVGDRVTITCRASRSIYSGLAWYQQKPRKPPKLLIYDHSTLASGVPSRFSGSGSGTEYALKISRLQPEDFATYYCQHADYAHHSDNVFGGGTKVEIKRTVAAPSVFIFPPSDEQLKSGTASVVCLLNNFYPREAKVQWKVDNALQSGNSQESVTEQDSKDSTYSLSSTLTLSKADYEKHKVYACEVTHQGLSSPVTKSFNRGEC |  | 1.38
14 | Ab1H/Ab1L038 (antibody, human IgG1, kappa, copies: 2 + 2) heavy: not shown light: DIQMTQSPSSVSASVGDRVTITCRASRSIYSGLAWYQQKPGQPPKLLIYDHRTLARGVPSRFSGSGSGTEYALKISRLQPEDFATYYCQHADYAHHSDNVFGGGTKVEIKRTVAAPSVFIFPPSDEQLKSGTASVVCLLNNFYPREAKVQWKVDNALQSGNSQESVTEQDSKDSTYSLSSTLTLSKADYEKHKVYACEVTHQGLSSPVTKSFNRGEC |  | 1.47
15 | Ab1H/Ab1L039 (antibody, human IgG1, kappa, copies: 2 + 2) heavy: not shown light: DIQMTQSPSSVSASVGDRVTITCRASRSIYSGLAWYQQKPGQPPKLLIYDHSTLASGVPSRFSGSGSGTEYALKIRRLKPEDFATYYCQHADYAHHSDNVFGGGTKVEIKRTVAAPSVFIFPPSDEQLKSGTASVVCLLNNFYPREAKVQWKVDNALQSGNSQESVTEQDSKDSTYSLSSTLTLSKADYEKHKVYACEVTHQGLSSPVTKSFNRGEC |  | 0.99
16 | Ab1H/Ab1L040 (antibody, human IgG1, kappa, copies: 2 + 2) heavy: not shown light: DIQMTQSPSSVSASVGDRVTITCRASRSIYSGLAWYQQKPRKPPKLLIYDHSTLASGVPSRFSGSGSGTEYALTIRSLKPEDFATYYCQHADYAHHSDNVFGGGTKVEIKRTVAAPSVFIFPPSDEQLKSGTASVVCLLNNFYPREAKVQWKVDNALQSGNSQESVTEQDSKDSTYSLSSTLTLSKADYEKHKVYACEVTHQGLSSPVTKSFNRGEC |  | 1.23
17 | Ab1H/Ab1L041 (antibody, human IgG1, kappa, copies: 2 + 2) heavy: not shown light: DIQMTQSPSSVSASVGDRVTITCRASRSIYSGLAWYQQKPGQPPKLLIYDHRTLARGVPSRFSGSGSGTEYALTIRSLKPEDFATYYCQHADYAHHSDNVFGGGTKVEIKRTVAAPSVFIFPPSDEQLKSGTASVVCLLNNFYPREAKVQWKVDNALQSGNSQESVTEQDSKDSTYSLSSTLTLSKADYEKHKVYACEVTHQGLSSPVTKSFNRGEC |  | 1.35
18 | Ab1H/Ab1L061 (antibody, human IgG1, kappa, copies: 2 + 2) heavy: not shown light: DIQMTQSPSSVSASVGDRVTITCQASESIYSGLAWYQQKPGKPPKLLIYDHSTLASGVPSRFSGSGSGTEYALTIRSLQPEDFATYYCQHADYAHHSDNVFGGGTKVEIKRTVAAPSVFIFPPSDEQLKSGTASVVCLLNNFYPREAKVQWKVDNALQSGNSQESVTEQDSKDSTYSLSSTLTLSKADYEKHKVYACEVTHQGLSSPVTKSFNRGEC |  | 1.02
19 | Ab1H/Ab1L062 (antibody, human IgG1, kappa, copies: 2 + 2) heavy: not shown light: DIQMTQSPSSVSASVGDRVTITCQASESIYSGLAWYQQKPGQPPKLLIYDHSTLASGVPSRFSGRGSGTEYALTISSLKPEDFATYYCQHADYAHHSDNVFGGGTKVEIKRTVAAPSVFIFPPSDEQLKSGTASVVCLLNNFYPREAKVQWKVDNALQSGNSQESVTEQDSKDSTYSLSSTLTLSKADYEKHKVYACEVTHQGLSSPVTKSFNRGEC |  | 0.98
